Reference: the supplement of paper PMC10567573

B1: ESR2 (parent)
chain: KSCQACRLRKCYEVGMVKCGSRRE

Variants of: B1
Assay: protein stability index of a GFP-peptide fusion (GPS, HEK-293T) (PSI 1-6); higher = more stable
Conditions: c terminus: a fixed tail appended
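Also: lentivirally expressed fusions sorted by FACS into six bins by GFP to DsRed ratio, PSI derived from sequencing read proportions per bin multiplied by bin number.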

Protein stability index, by site and new letter:
M16: E 1.84, K 2.67, C 3.01, F 2.1, D 1.66, A 1.76, Q 1.95, G 2, W 1.88, H 2.82, Y 1.85, V 1.74, L 2.22
C19: S 1.61, L 1.89, N 2.04, G 2.11, H 1.94, P 2.28, E 2.43, Y 1.43, F 1.86, W 3.71, V 1.89, Q 1.53, R 2.52, D 2.51, A 2.18, I 1.4, T 2.81, K 1.76, M 1.9
G15: V 1.25, Y 1.81
G20: Y 2.15, P 1.84, C 1.95, I 2.16, K 2.41, H 2.75, R 2.49, F 2.01, A 1.91, E 2.41, W 1.48, L 1.73, Q 1.73, S 1.81, N 2.12, M 1.73, T 2.19, D 1.87, V 1.87
E24: Q 1.88, W 2.33, T 2.12, Y 1.42, I 1.73, C 2.28, P 2.74, V 2.19, M 1.67, L 2.07, H 1.68, A 2.44, F 1.91, R 2.24, G 2.92, K 2.45, S 1.79, D 2.28, N 2.02
K18: Y 1.49, T 1.82, H 2.33, I 1.49, G 1.8, L 1.73, D 2.2, V 2.79, N 2.39, R 2.31, P 1.72, C 2.16, A 1.89, W 1.35, F 1.51, M 1.67, S 2.85, E 2.09, Q 1.7
V17: P 1.82, T 1.98, M 2.37, Y 1.78, H 2.97, D 1.6, F 1.94, L 1.61, I 2.21, C 3.72, R 1.82, S 2.16, G 2.27, N 3.53, E 1.89, Q 2.1, A 2.41, K 2.54, W 1.86
S21: L 2.44, W 1.5, V 1.56, N 2.57, A 2.24, Q 1.32, H 2.65, F 1.5, K 2.39, Y 1.76, M 2.13, E 2.25, R 2.09, D 1.75, P 2.29, C 3.46, I 1.69, T 2.31, G 1.89
R22: H 1.97, C 3.45, E 2.98, N 1.91, F 1.41, D 3.02, P 2.33, A 1.88, M 2.21, S 1.91, L 1.33, W 2.05, I 1.83, Y 1.66, K 2.35, T 1.92, V 1.97, G 1.99, Q 2.04
R23: M 1.98, K 1.96, A 1.61, V 2.41, Y 2.09, Q 2.21, G 1.79, H 1.96, S 2.25, C 2.39, E 2.33, I 2.43, T 1.85, P 2.2, D 2.48, L 1.58, N 2.17, W 1.67, F 2.51
